Data: paper PMC8642555 (Nature Communications, 2021)
Changes are numbered by the printed parent chain. Names may count otherwise.

Columns and labels:
FcεRI (Homo sapiens) = FcεRI (Homo sapiens) (UniProt P12319); settings: cited from earlier work
IgE [1] = assay: binding studies with purified scFvs (method not given; Supplementary Fig. 3c); settings: read off a plot; for koff: parent: est. 2.5e-3; for kon: parent: est. 1.0e6
[2] = target: bIgE-Fc2–4:FcεRIα-Ova complex (UniProt P12319); assay: bead-based disruption assay; settings: parent: est. 20 µM; read off a plot
bIgE-Fc2–4:FcεRIα-Ova complex, sequence (P12319 whole entry, looked up, tested part not stated, one chain of several): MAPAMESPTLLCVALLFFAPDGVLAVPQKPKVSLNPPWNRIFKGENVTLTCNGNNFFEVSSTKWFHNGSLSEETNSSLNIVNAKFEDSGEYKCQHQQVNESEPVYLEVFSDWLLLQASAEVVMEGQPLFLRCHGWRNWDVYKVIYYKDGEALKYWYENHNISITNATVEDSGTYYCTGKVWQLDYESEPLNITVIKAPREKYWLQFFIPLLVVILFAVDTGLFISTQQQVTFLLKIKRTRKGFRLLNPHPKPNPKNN

IgE [3] = assay: binding kinetics (method not named in the legend or citing paragraphs; Supplementary Fig. 1e); settings: parent: est. 2.8e-3 s-1; read off a plot
[4] = target: disulfide locked IgE-Fc2–4(G335C):FcεRIα(W156C) complex (UniProt P12319); assay: BLI; single cycle kinetics; locked complex captured on Ni-NTA tips, coupled with EDC/NHS, nickel chelated with EDTA; anti-IgE agents in a twofold serial dilution from 1600 nM to 100 nM; 2:1 SCK binding model (Clamp-XP)
biotinylated-IgE-Fc2–4 [5] = target: T1, biotinylated-IgE-Fc2–4 (human, biotin (Sulfo-NHS-LC-Biotin)); assay: BLI; Octet-Red 96; biotin-labeled human IgE on streptavidin tips (~0.5 nm); serial dilution of anti-IgE agents from the lowest concentration (single cycle kinetics); 1:1 SCK model; settings: both partners purified
T1 construct: IgE heavy chain constant region, human, Fc fragment with the domains Cε2, Cε3 and Cε4; the results speak of the KD for free IgE-Fc2–4; also called bIgE-Fc2–4; biotin-IgE-Fc2–4; source: labelled with Sulfo-NHS-LC-Biotin
T1 chain: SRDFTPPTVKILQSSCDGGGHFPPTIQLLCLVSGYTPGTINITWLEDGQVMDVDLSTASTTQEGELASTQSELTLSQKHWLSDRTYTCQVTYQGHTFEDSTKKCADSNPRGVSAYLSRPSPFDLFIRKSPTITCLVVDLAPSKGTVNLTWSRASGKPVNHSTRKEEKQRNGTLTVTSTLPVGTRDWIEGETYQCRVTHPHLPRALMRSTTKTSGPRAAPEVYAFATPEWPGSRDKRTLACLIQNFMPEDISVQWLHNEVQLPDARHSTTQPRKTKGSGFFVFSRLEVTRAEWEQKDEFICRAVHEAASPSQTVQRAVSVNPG

biotinylated IgE-Fc2–4 [6] = target: T2, biotinylated IgE-Fc2–4 (Homo sapiens, UniProt P01854, biotin (Sulfo-NHS-LC-Biotin labelling)); assay: BLI; Octet-Red 96; biotin-labeled human IgE immobilised on streptavidin tips (~0.5 nm); serial dilution of anti-IgE agents from the lowest concentration (single-cycle kinetics); 1:1 SCK binding model; settings: both partners purified
T2 construct: human IgE heavy chain constant region, Fc fragment with the domains Cε2 to Cε4 (IgE-Fc2–4); PDB 2Y7Q is a cited IgE-Fc2–4:FcεRIα structure and may be another construct; also called bIgE-Fc2–4; biotin-IgE-Fc2–4

biotinylated-IgE-Fc2–4 [7] = target: T1, biotinylated-IgE-Fc2–4; assay: bead-based disruption assay (flow cytometry of beads); FcεRIα-Ova coupled polystyrene beads loaded with 500 nM biotin-IgE-Fc2–4 and washed; serial dilution of anti-IgE agent, 30 min, room temperature, 900 rpm; fixed; remaining bIgE-Fc2–4 stained with PE/Cy5-streptavidin; ID50 from dose response fit; settings: both partners purified
biotinylated IgE-Fc2–4 [8] = target: T3, biotinylated IgE-Fc2–4 (human, UniProt P01854 106-427, biotin (Sulfo-NHS-LC-Biotin labelling)); assay: BLI; Octet-Red 96; biotin-labeled human IgE immobilised on streptavidin tips (~0.5 nm); serial dilution of anti-IgE agents from the lowest concentration (single-cycle kinetics); 1:1 SCK binding model; settings: both partners purified
T3 construct: human IgE heavy chain constant region, Fc fragment with the domains Cε2 to Cε4 (IgE-Fc2–4); PDB 2Y7Q is a cited IgE-Fc2–4:FcεRIα structure and may be another construct; also called bIgE-Fc2–4; biotin-IgE-Fc2–4

[9] = target: Biotinylated full length recombinant IgE (human) (UniProt P01854); assay: BLI; biotinylated full length recombinant IgE on streptavidin (SA) tips; single cycle kinetics, five 100 s associations, four 100 s dissociations and a final 600 s dissociation; analyte in two-fold serial dilutions from 50 nM to 1.56 nM; Octet Red 96; 1:1 SCK model in BiaEvaluation 3.0
Biotinylated full length recombinant IgE (human), sequence (P01854 whole entry, looked up): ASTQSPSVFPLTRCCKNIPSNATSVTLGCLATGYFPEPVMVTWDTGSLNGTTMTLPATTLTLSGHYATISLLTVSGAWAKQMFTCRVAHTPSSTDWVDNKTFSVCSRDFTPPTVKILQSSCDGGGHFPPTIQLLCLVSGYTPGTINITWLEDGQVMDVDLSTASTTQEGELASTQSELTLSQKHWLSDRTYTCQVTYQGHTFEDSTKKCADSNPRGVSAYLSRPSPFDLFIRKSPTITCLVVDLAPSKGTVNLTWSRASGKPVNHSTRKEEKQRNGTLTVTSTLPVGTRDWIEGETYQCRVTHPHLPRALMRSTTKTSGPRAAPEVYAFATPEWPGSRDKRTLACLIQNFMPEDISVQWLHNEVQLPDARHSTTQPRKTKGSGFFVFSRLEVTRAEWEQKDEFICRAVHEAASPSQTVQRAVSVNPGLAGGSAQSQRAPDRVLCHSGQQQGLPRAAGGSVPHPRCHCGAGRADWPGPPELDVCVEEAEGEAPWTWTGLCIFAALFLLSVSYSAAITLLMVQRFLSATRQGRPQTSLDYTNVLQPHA

FcεRI (Homo sapiens), sequence (P12319 26-257): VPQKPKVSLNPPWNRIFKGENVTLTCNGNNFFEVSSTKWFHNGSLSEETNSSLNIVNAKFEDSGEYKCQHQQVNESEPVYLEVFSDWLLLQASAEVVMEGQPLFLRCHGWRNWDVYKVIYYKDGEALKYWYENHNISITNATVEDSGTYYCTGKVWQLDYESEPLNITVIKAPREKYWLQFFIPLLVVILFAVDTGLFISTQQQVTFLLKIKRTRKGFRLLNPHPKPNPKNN

Molecule: IgE (from UniProt P01854)
- Kd (FcεRI (Homo sapiens)): 0.1 nM

Molecule: omalizumab single chain variable fragment (scFv) VH:S28N; VH:T53K; VH:D55S; VH:S57E; VH:N59K; VL:Q27K; VL:S28P; VL:Y31G; VL:D32E; VL:M37L
- koff (IgE [1]): 0.00026 s⁻¹
- kon (IgE [1]): 1.7e+06 M⁻¹ s⁻¹

Molecule: omalizumab single chain variable fragment (scFv) scFvCC (cysteines for a disulfide bond at the VH:VL interface; positions not printed)
- other: ID50 [2]: 40000 nM
- koff (IgE [3]): 0.013 s⁻¹

Molecule: omalizumab single chain variable fragment (scFv) VH:G15D; VH:I52V; VL:Y31S
- koff (IgE [1]): 0.002 s⁻¹
- kon (IgE [1]): 1e+06 M⁻¹ s⁻¹

Molecule: omalizumab single chain variable fragment (scFv) VH:G15D; VH:A41T; VH:I52V; VH:D74G; VH:R98K; VH:S100N; VH:H101N; VL:Q27K; VL:Y31S; VL:K46R
- koff (IgE [1]): 0.0016 s⁻¹
- kon (IgE [1]): 2e+06 M⁻¹ s⁻¹

Molecule: HAE scFv (high-affinity omalizumab variant)
- KD of the high affinity site (2:1 model) [4]: 2.86 nM
- KD of the low affinity site (2:1 model) [4]: 25.8 nM

B1: clone 16 scFv (scFv, V domains shown)
VH: EVQLVESGGGLVQPDGSLRLSCAVSGYNITSGYSWNWIRQTPGKGLEWVASVTYDGSTNYNPSVKGRITISRDGSKNTFYLQMNSLRAEDTAVYYCAKGNNYFGHWHFAVWGQGTLVTVSS
VL: DIQLTQSPSSLSASVGDRVTITCRASKPVDGEGDSYLNWYQQKPGKAPKLLIYAASYLESGVPSRFSGSGSGTYFTLTISSLQPEDFATYYCQQSHEDPYTFGQGTKVEIK
notes: VH of clone 16, from a shuffled library of C02 and HAE; most clones used the C02-VH with sporadic further mutations; VL of clone 16, from a shuffled library of C02 and HAE; most clones used the HAE-VL with sporadic further mutations
- binding result (biotinylated-IgE-Fc2–4 [5]): binds

B2: clone 16 scFv (shuffled C02/HAE omalizumab variant with VL D74Y) (scFv, V domains shown)
VH: B1 VH
VL: B1 VL
notes: from a shuffled library of C02 (Sm8) and HAE (Sm7); D74Y in the E-strand of VL; D74 counts on the VL domain
- Kd (biotinylated IgE-Fc2–4 [6]): 0.308 nM
- koff (biotinylated IgE-Fc2–4 [6]): 0.000448 s⁻¹
- kon (biotinylated IgE-Fc2–4 [6]): 1.45e+06 M⁻¹ s⁻¹

B3: clone A4 scFv (shuffled C02/HAE omalizumab variant with VL D74G) (scFv, V domains shown)
VH: B1 VH
VL: B1 VL with Y74G
notes: from a shuffled library of C02 (Sm8) and HAE (Sm7); D74G in the E-strand of VL; D74 counts on the VL domain
- Kd (biotinylated IgE-Fc2–4 [6]): 0.377 nM
- koff (biotinylated IgE-Fc2–4 [6]): 0.000565 s⁻¹
- kon (biotinylated IgE-Fc2–4 [6]): 1.5e+06 M⁻¹ s⁻¹

B4: clone 7 scFv (scFv, V domains shown)
VH: B1 VH
VL: B1 VL with P28S, G31S, E32D, L37M, K46R, Y74H
notes: VH as the VH of C02; VL as the VL of C02 with D74H in the E-strand; Identical to C02 beyond D74H
- fold increase of ID50 against C02 (biotinylated-IgE-Fc2–4 [7]): 5 fold

B5: clone A4 scFv (scFv, V domains shown)
VH: B1 VH
VL: B1 VL with Y74G
notes: VH of clone A4, from a shuffled library of C02 and HAE; most clones used the C02-VH with sporadic further mutations; VL of clone A4, from a shuffled library of C02 and HAE; most clones used the HAE-VL with sporadic further mutations
- binding result (biotinylated-IgE-Fc2–4 [5]): binds

B6: clone 7 scFv (C02 with VL D74H) (scFv, V domains shown)
VH: B1 VH
VL: B1 VL with P28S, G31S, E32D, L37M, K46R, Y74H
notes: as the scFv of C02 (Sm8), identical to it beyond D74H in the E-strand of the VL domain; cryo-EM structure with the locked IgE-Fc2–4:FcεRIα complex solved here; D74 counts on the VL domain
- Kd (biotinylated IgE-Fc2–4 [6]): 0.581 nM
- koff (biotinylated IgE-Fc2–4 [6]): 0.00104 s⁻¹
- kon (biotinylated IgE-Fc2–4 [6]): 1.79e+06 M⁻¹ s⁻¹

B7: DARPin E2_79 (designed binder)
chain: MRGSHHHHHHGSDLGKKLLEAARAGQDDEVRILTANGADVNANDYWGHTPLHLAAMLGHLEIVEVLLKNGADVNATGNTGRTPLHLAAWADHLEIVEVLLKHGADVNAQDKFGKTAFDISIDNGNEDLAEILQKL
- Kd (biotinylated IgE-Fc2–4 [8]): 1.18 nM
- koff (biotinylated IgE-Fc2–4 [8]): 0.00212 s⁻¹
- kon (biotinylated IgE-Fc2–4 [8]): 1.79e+06 M⁻¹ s⁻¹
- Kd [9]: 1.18 nM
- koff [9]: 0.00212 s⁻¹
- kon [9]: 1.79e+06 M⁻¹ s⁻¹
